First the molecules themselves.
B1: FZD4 Agonist ANT16 (bispecific antibody, human IgG1, kappa, N297G)
heavy 1: EVQLVESGGGLVQPGGSLRLSCAASGFDFTAYAMHWVRQAPGKGLEWVASIYPSGGYTAYADSVKGRFTISADTSKNTAYLQMNSLRAEDTAVYYCARRSYYFALDYWGQGTLVTVSSGGGGSDIQMTQSPSSLSASVGDRVTITCRASQSVSSAVAWYQQKPGKAPKLLIYSASSLYSGVPSRFSGSRSGTDFTLTISSLQPEDFATYYCQQYWAYYSPITFGQGTKVEIKGGGGSGGGGSEPKTSDKTHTCPPCPAPELLGGPSVFLFPPKPKDTLMISRTPEVTCVVVAVSHEDPEVKFNWYVDGVEVHNAKTKPREEQYGSTYRVVSVLTVLHQDWLNGKEYKCKVSNKALPAPIEKTISKAKGQPREPMVFDLPPSREEMTKNQVSLWCMVKGFYPSDIAVEWESNGQPENNYKTTPPVLDSDGSFFLYSKLTVDKSRWQQGNVFSCSVMHEALHNHYTQKSLSLSPGKGGGSGGGSGGGSGGGSGSTGEVQLVESGGGLVQPGGSLRLSCAASGFTLSSYSMHWVRQAPGKGLEWVAYISSYYGYTYYADSVKGRFTISADTSKNTAYLQMNSLRAEDTAVYYCARPAPGHWGFDYWGQGTLVTVSSASTKGPSVFPLAPSSKSTSGGTAALGCLVKDYFPEPVTVSWNSGALTSGVHTFPAVLQSSGLYSLSSVVTVPSSSLGTQTYICNVNHKPSNTKVDKKVEPKSCDKTHT
heavy 2: EVQLVESGGGLVQPGGSLRLSCAASGFDFSSSSIHWVRQAPGKGLEWVASISSSYGYTYYADSVKGRFTISADTSKNTAYLQMNSLRAEDTAVYYCARSWAMDYWGQGTLVTVSSGGGGSDIQMTQSPSSLSASVGDRVTITCRASQSVSSAVAWYQQKPGKAPKLLIYSASDLYSGVPSRFSGSRSGTDFTLTISSLQPEDFATYYCQQYAGAGLITFGQGTKVEIKGGGGSGGGGSEPKSSDKTHTCPPCPAPELLGGPSVFLFPPKPKDTLMISRTPEVTCVVVAVSHEDPEVKFNWYVDGVEVHNAKTKPREEQYGSTYRVVSVLTVLHQDWLNGKEYKCKVSNKALPAPIEKTISKAKGQPREPQVYTLPPIRELMTSNQVSLSCAVKGFYPSDIAVEWESNGQPENNYKTTPPVLDSDGSFFLVSKLTVDKSRWQQGNVFSCSVMHEALHNHYTQKSLSLSPGKGGGSGGGSGGGSGGGSGSTGEVQLVESGGGLVQPGGSLRLSCAASGFTLSSYSMHWVRQAPGKGLEWVAYISSYYGYTYYADSVKGRFTISADTSKNTAYLQMNSLRAEDTAVYYCARPAPGHWGFDYWGQGTLVTVSSASTKGPSVFPLAPSSKSTSGGTAALGCLVKDYFPEPVTVSWNSGALTSGVHTFPAVLQSSGLYSLSSVVTVPSSSLGTQTYICNVNHKPSNTKVDKKVEPKSCDKTHT
light: DIQMTQSPSSLSASVGDRVTITCRASQSVSSAVAWYQQKPGKAPKLLIYSASSLYSGVPSRFSGSRSGTDFTLTISSLQPEDFATYYCQQWYYAPITFGQGTKVEIKRTVAAPSVFIFPPSDEQLKSGTASVVCLLNNFYPREAKVQWKVDNALQSGNSQESVTEQDSKDSTYSLSSTLTLSKADYEKHKVYACEVTHQGLSSPVTKSFNRGEC
notes: Diabody-Fc-Fab format: bispecific LRP5 diabody at the N-terminus, two FZD4 Fabs at the C-terminus
B2: FZD4 Agonist ANT20 (bispecific antibody)
heavy 1: EVQLVESGGGLVQPGGSLRLSCAASGFDFTAYAMHWVRQAPGKGLEWVASIYPSGGYTAYADSVKGRFTISADTSKNTAYLQMNSLRAEDTAVYYCARRSYYFALDYWGQGTLVTVSSGGGGSDIQMTQSPSSLSASVGDRVTITCRASQSVSSAVAWYQQKPGKAPKLLIYSASSLYSGVPSRFSGSRSGTDFTLTISSLQPEDFATYYCQQASYAPITFGQGTKVEIKGGGGSGGGGSEPKTSDKTHTCPPCPAPELLGGPSVFLFPPKPKDTLMISRTPEVTCVVVAVSHEDPEVKFNWYVDGVEVHNAKTKPREEQYGSTYRVVSVLTVLHQDWLNGKEYKCKVSNKALPAPIEKTISKAKGQPREPMVFDLPPSREEMTKNQVSLWCMVKGFYPSDIAVEWESNGQPENNYKTTPPVLDSDGSFFLYSKLTVDKSRWQQGNVFSCSVMHEALHNHYTQKSLSLSPGKGGGSGGGSGGGSGGGSGSTGEVQLVESGGGLVQPGGSLRLSCAASGFTLSSYSMHWVRQAPGKGLEWVAYISSYYGYTYYADSVKGRFTISADTSKNTAYLQMNSLRAEDTAVYYCARPAPGHWGFDYWGQGTLVTVSSASTKGPSVFPLAPSSKSTSGGTAALGCLVKDYFPEPVTVSWNSGALTSGVHTFPAVLQSSGLYSLSSVVTVPSSSLGTQTYICNVNHKPSNTKVDKKVEPKSCDKTHT
heavy 2: EVQLVESGGGLVQPGGSLRLSCAASGFNLSYYYMHWVRQAPGKGLEWVASIYSSYGYTYYADSVKGRFTISADTSKNTAYLQMNSLRAEDTAVYYCARWSHVSGHYSGMDYWGQGTLVTVSSGGGGSDIQMTQSPSSLSASVGDRVTITCRASQSVSSAVAWYQQKPGKAPKLLIYSASDLYSGVPSRFSGSRSGTDFTLTISSLQPEDFATYYCQQYAGAGLITFGQGTKVEIKGGGGSGGGGSEPKSSDKTHTCPPCPAPELLGGPSVFLFPPKPKDTLMISRTPEVTCVVVAVSHEDPEVKFNWYVDGVEVHNAKTKPREEQYGSTYRVVSVLTVLHQDWLNGKEYKCKVSNKALPAPIEKTISKAKGQPREPQVYTLPPIRELMTSNQVSLSCAVKGFYPSDIAVEWESNGQPENNYKTTPPVLDSDGSFFLVSKLTVDKSRWQQGNVFSCSVMHEALHNHYTQKSLSLSPGKGGGSGGGSGGGSGGGSGSTGEVQLVESGGGLVQPGGSLRLSCAASGFTLSSYSMHWVRQAPGKGLEWVAYISSYYGYTYYADSVKGRFTISADTSKNTAYLQMNSLRAEDTAVYYCARPAPGHWGFDYWGQGTLVTVSSASTKGPSVFPLAPSSKSTSGGTAALGCLVKDYFPEPVTVSWNSGALTSGVHTFPAVLQSSGLYSLSSVVTVPSSSLGTQTYICNVNHKPSNTKVDKKVEPKSCDKTHT
light: B1 light
notes: Diabody-Fc-Fab format
B3: FZD4 Agonist ANT18 (bispecific antibody)
heavy 1: EVQLVESGGGMVQPGGSLRLSCAASGFNFSSSSIHWVRQAPGKGLEWVASISSSYGYTYYADSVKGRFTISADTSKNTAYLQMNSLRAEDTAVYYCARGGSGVSHYGSVYYSWWALDYWGQGTLVTVSSGGGGSDIQMTQSPSSLSASVGDRVTITCRASQSVSSAVAWYQQKPGKAPKLLIYSASSLYSGVPSRFSGSRSGTDFTLTISSLQPEDFATYYCQQASYAPITFGQGTKVEIKGGGGSGGGGSEPKTSDKTHTCPPCPAPELLGGPSVFLFPPKPKDTLMISRTPEVTCVVVAVSHEDPEVKFNWYVDGVEVHNAKTKPREEQYGSTYRVVSVLTVLHQDWLNGKEYKCKVSNKALPAPIEKTISKAKGQPREPMVFDLPPSREEMTKNQVSLWCMVKGFYPSDIAVEWESNGQPENNYKTTPPVLDSDGSFFLYSKLTVDKSRWQQGNVFSCSVMHEALHNHYTQKSLSLSPGKGGGSGGGSGGGSGGGSGSTGEVQLVESGGGLVQPGGSLRLSCAASGFTLSSYSMHWVRQAPGKGLEWVAYISSYYGYTYYADSVKGRFTISADTSKNTAYLQMNSLRAEDTAVYYCARPAPGHWGFDYWGQGTLVTVSSASTKGPSVFPLAPSSKSTSGGTAALGCLVKDYFPEPVTVSWNSGALTSGVHTFPAVLQSSGLYSLSSVVTVPSSSLGTQTYICNVNHKPSNTKVDKKVEPKSCDKTHT
heavy 2: EVQLVESGGGLVQPGGSLRLSCAASGFNLSYYYMHWVRQAPGKGLEWVASIYSSYGYTYYADSVKGRFTISADTSKNTAYLQMNSLRAEDTAVYYCARWSHVSGHYSGMDYWGQGTLVTVSSGGGGSDIQMTQSPSSLSASVGDRVTITCRASQSVSSAVAWYQQKPGKAPKLLIYSASSLYSGVPSRFSGSRSGTDFTLTISSLQPEDFATYYCQQSSYSLITFGQGTKVEIKGGGGSGGGGSEPKSSDKTHTCPPCPAPELLGGPSVFLFPPKPKDTLMISRTPEVTCVVVAVSHEDPEVKFNWYVDGVEVHNAKTKPREEQYGSTYRVVSVLTVLHQDWLNGKEYKCKVSNKALPAPIEKTISKAKGQPREPQVYTLPPIRELMTSNQVSLSCAVKGFYPSDIAVEWESNGQPENNYKTTPPVLDSDGSFFLVSKLTVDKSRWQQGNVFSCSVMHEALHNHYTQKSLSLSPGKGGGSGGGSGGGSGGGSGSTGEVQLVESGGGLVQPGGSLRLSCAASGFTLSSYSMHWVRQAPGKGLEWVAYISSYYGYTYYADSVKGRFTISADTSKNTAYLQMNSLRAEDTAVYYCARPAPGHWGFDYWGQGTLVTVSSASTKGPSVFPLAPSSKSTSGGTAALGCLVKDYFPEPVTVSWNSGALTSGVHTFPAVLQSSGLYSLSSVVTVPSSSLGTQTYICNVNHKPSNTKVDKKVEPKSCDKTHT
light: B1 light
notes: Diabody-Fc-Fab format
B4: diabody-Fc-diabody FZD4 CM0199 (bispecific antibody)
chain 1: EFEVQLVESGGGLVQPGGSLRLSCAASGFNSSFYFMHWVRQAPGKGLEWVATVYPYLDYTYYADSVKGRFTISADTSKNTAYLQMNSLRAEDTAVYYCARAFPGSYHPMDYWGQGTLVTVSSGGGGSDIQMTQSPSSLSASVGDRVTITCRASQSVSSAVAWYQQKPGKAPKLLIYSASSLYSGVPSRFSGSRSGTDFTLTISSLQPEDFATYYCQQSSYSLITFGQGTKVEIKLEDKTHTKVEPKTSDKTHTCPPCPAPELLGGPSVFLFPPKPKDTLMISRTPEVTCVVVDVSHEDPEVKFNWYVDGVEVHNAKTKPREEQYNSTYRVVSVLTVLHQDWLNGKEYKCKVSNKALPAPIEKTISKAKGQPREPMVFDLPPSREEMTKNQVSLWCMVKGFYPSDIAVEWESNGQPENNYKTTPPVLDSDGSFFLYSKLTVDKSRWQQGNVFSCSVMHEALHNHYTQKSLSLSPGKSGSETPGTSESATPESGGGEVQLVESGGGLVQPGGSLRLSCAASGFNFSSSSIHWVRQAPGKGLEWVASISSSYGYTYYADSVKGRFTISADTSKNTAYLQMNSLRAEDTAVYYCARGGSGVSHYGSVYYSWWALDYWGQGTLVTVSSGGGGSDIQMTQSPSSLSASVGDRVTITCRASQSVSSAVAWYQQKPGKAPKLLIYSASSLYSGVPSRFSGSRSGTDFTLTISSLQPEDFATYYCQQASYAPITFGQGTKVEIK
chain 2: EFEVQLVESGGGLVQPGGSLRLSCAASGFNSSFYFMHWVRQAPGKGLEWVATVYPYLDYTYYADSVKGRFTISADTSKNTAYLQMNSLRAEDTAVYYCARAFPGSYHPMDYWGQGTLVTVSSGGGGSDIQMTQSPSSLSASVGDRVTITCRASQSVSSAVAWYQQKPGKAPKLLIYSASSLYSGVPSRFSGSRSGTDFTLTISSLQPEDFATYYCQQSSYSLITFGQGTKVEIKLEDKTHTKVEPKSSDKTHNCPPCPAPELLGGPSVFLFPPKPKDTLMISRTPEVTCVVVDVSHEDPEVKFNWYVDGVEVHNAKTKPREEQYNSTYRVVSVLTVLHQDWLNGKEYKCKVSNKALPAPIEKTISKAKGQPREPQVYTLPPIRELMTSNQVSLSCAVKGFYPSDIAVEWESNGQPENNYKTTPPVLDSDGSFFLVSKLTVDKSRWQQGNVFSCSVMHEALHNHYTQKSLSLSPGKSGSETPGTSESATPESGGGEVQLVESGGGLVQPGGSLRLSCAASGFNLSYYYMHWVRQAPGKGLEWVASIYSSYGYTYYADSVKGRFTISADTSKNTAYLQMNSLRAEDTAVYYCARWSHVSGHYSGMDYWGQGTLVTVSSGGGGSDIQMTQSPSSLSASVGDRVTITCRASQSVSSAVAWYQQKPGKAPKLLIYSASSLYSGVPSRFSGSRSGTDFTLTISSLQPEDFATYYCQQSSYSLITFGQGTKVEIK
notes: Diabody-Fc-diabody format FZD agonist that recognizes FZD4 and LRP5; also called F4L5.13

This assay concerns the target T1, FZD4 recombinant extracellular domain, Fc fusion (FZD-Fc) (UniProt Q9ULV1 37-180).
T1 construct: extracellular domain; also called FZD4 ECD; not shown: Fc part of the FZD-Fc protein
T1 sequence (looked up): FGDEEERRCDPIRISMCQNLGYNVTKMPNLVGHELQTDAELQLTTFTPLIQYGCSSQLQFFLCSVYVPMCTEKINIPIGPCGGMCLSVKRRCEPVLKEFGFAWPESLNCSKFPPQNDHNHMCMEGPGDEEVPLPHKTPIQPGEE
In words: BLI (Octet), FZD-Fc captured on AHQ sensors, agonist in solution; apparent affinity. In general terms: In BLI a coated tip is dipped into the sample, and binding shifts an interference pattern.
Turning to B1, the Kd was 600 pM.
Take B2: the Kd is 700 pM.
Turning to B3, the Kd is 2600 pM.
As for B4, the Kd came out at 700 pM.

The values above are taken from patent publication US20250270332A1 (ANTLERA THERAPEUTICS, published 2025).
